This is an account of results in article PMC9655642.

This data set concerns alpha-CTD (RNA polymerase alpha subunit C-terminal domain) (Bacillus licheniformis B1391). Description: fluorescence polarization. The conditions noted are these: FP: 25 mM Tris-HCl, 3 mM NaCl, 3 mM MgCl2, 0.1 mM DTT, room temp 20 min, 100 nM probe, 30 ug protein in 100 uL; EMSA: 10 nM probe, 25 C 20 min; footprinting: …. For orientation: In fluorescence polarisation assays a small probe gives low polarisation when free and higher when bound to something large.

In the case of “PtrxA-UP5-5P (five proximal subsite repeats)”, the binding signal (% polarization change (DPC)) amounted to 52.

For “PtrxA-UP5-5D (five distal subsite repeats)”, the binding signal (% polarization change (DPC)) was 35.
